Source: the DeepSol protein solubility set

Assay: soluble on expression in E. coli; label from the status in PepcDB or PDB records

Q: For “MSFQEIPIIDLQEAFDPATRSKFLEEVRDAIINVGFLLLKNYESLGPTEEDLQSIKQQAIEFFALPAKEKLQCEMLNSPHFLGYTRLANEITASHTDWREQIDLATELPAPKEGEPLYKNIEGPNLWPNPEVIPKFRPTIERFIEKMTALSNVFKDLVAESIGVDPKALNRYFKENQQCKMKLIAYPDVSELDGTKSAALDDTPETNQGVEPHRDSDLITYIYQATEHQNSLQVQNFQGHWITVPNIPGHLVVNNGQTLQAITGGVAKATIHRVLVPEKGTGTRISIPFFQTIDLDSSKGVVDNLPQEVIDLKNERDKKIKDWGVDTGFQFEPDVSKEPIGHAVFRNRIKSHQDVAKKWYPDVLKSVLQEYTH”, which “soluble on expression in E. coli” value is on record?
A: soluble

Q: Which “soluble on expression in E. coli” value does the source give for “SLYMDTAVSPFYFVSNAPRELLDGVSQTLASRDQLELENRALRQELLLKNSELLMLGQYKQENARLRELLGSPLRQDEQKMVTQVISTVNDPYSDQVVIDKGSVNGVYEGQPVISDKGVVGQVVAVAKLTSRVLLICDATHALPIQVLRNDIRVIAAGNGCTDDLQLEHLPANTDIRVGDVLVTSGLGGRFPEGYPVAVVSSVKLDTQRAYTVIQARPTAGLQRLRYLLLLWGADRNGANPMTPEEVHRVANERLMQMMPQVLPSPDAMGPKLPEPATGIAQPTPQQPATGNAATAPAAPTQPAANRSPQRATPPQSGAQPPARAPGGQ” here?
A: soluble

Q: Which “soluble on expression in E. coli” value does the source give for “MGSDKIHHHHHHMDSSRSDPMRLMIFGAGYSGKAIGQHFIQQGIPVSGTTRSPAKAKALSDLGIEPLVFDGQRLSDEIIQAMACATHVVQSIAPGSDGDPLLRLTQGALKTWMPKVQWLAYLSTVGVYGDHQGAWVDEDTVCKPVSVRSKERVEAEQAWGRAALAAGVPLSTLRLSGIYGPGRNGLVNMAEGTARRLVKKDQVFNRIRVEDIAAATWFLAGRNEQGIFNITDHEPAPPQDVVAEAARLMEVEPPPEQAFETAELSPMARSFYGENKRVMNAKVRALGFAFAYPDYRVSLSQLWSSGRWRG” here?
A: not soluble

Q: With “MPKASLIIRERGLPKREVLLSPDRQWTIGRQLDCSIRLTDAYVSRLHAVINAFLFRGQPLYFIRDAHSRNGTFLNGFPLQHSTLLHHEDVIGVGTTLLVFYYPDMFREISLDECPLEHHHHHH” as the sequence, how does the “soluble on expression in E. coli” value read?
A: soluble

Q: Which “soluble on expression in E. coli” value does the source give for “MSLPMSLTIKLFLMFLLIESSIAKQKPDLDHVNVDMSEIDYSSFFKQMIEGWEREANEKYPFRPDLNNDDSSYFLQSRDQVYVNRSFFVQGKAQAYIRQWNNWKPYRDLGNKIGVLWPTQDNDCPKIEAMNPLTYMIHGLSRRYNILPLLK” here?
A: soluble

Q: Which “soluble on expression in E. coli” value does the source give for “MAGNAPLQQVQKKWAECQYSTPDGDEKEQCFHRAIAKTSIYLDREPGNPELTVWLAINKASLAGAQGGFGALSLAKEAKSLLEGVIATSPQTLDGSAYTSLGSLYYKVPGWPIGFGDDDKAEEMLKKALEINPKGIDPNYFYGDFLAEEGRDKEAKVYLTRAMQASPRPDRPLADKGRKLEIEATLGRLKLEHHHHHH” here?
A: soluble

Q: For “MGSDKIHHHHHHMEAKWLEDFLSLADTKSFSRAARHRHLTQSAFSRRIAALETWMDAKLVDRSINPITLTPAGQMFRGLAADILRSMYAARNLVNGYDQFAASDQVVRFAVAHTLVFTLFPEWLKQLNGEVGHVTARVNAVNVPEGVQQLVEGECDLLLGYHHPQLPIVLDPNHFPFVTLGVERILPVSTPDAHGRPVFELPGAPDAPLPLLAYSSGAFLGNVVEMLLLNASESYALHRCFETHMSEALKGMVVAGHGIGWLPESCVAKELAEGSLVRAGSADWITELEIRLYRSARKRGLAAEQLWTYIMNRPRTAADGLVAAEPGAPAVRIARRSVGGSR”, which “soluble on expression in E. coli” value is on record?
A: not soluble

Q: Which “soluble on expression in E. coli” value does the source give for “MAFHHGRRCRITPLPETESLQESKKMNINELGARIDRPTIRELIAYATCRNRPISNSTLLRMEKDGRIPCRLKTPLTSPVWDTREVLEALGLQQ” here?
A: not soluble

Q: With “MSLKPIIPEDERSKEPLDTDRVIYHPDMIRANEWVLNEYEAPYRELCIFVPCAKRKPYHESPSHKKFDRIIFGIAKPEDVHIVTFGTCGITPRELDTQYPFMHYSFMMGKCNVAKIKRDFIKMESERLAAYLEKTRDNYKHRIAYCIGDFRTAMEKAVEMVDVEVDIVPRESTIQKMIQPDKPFIYNSLSSREYLQDFSDAITDALKLPKRKVGLKEDLSVDDADWYLLEGHHHHHH” as the sequence, how does the “soluble on expression in E. coli” value read?
A: soluble

Q: With “MSLATSAFCAISSAALADGGQTKLPLLELPGIEDRDYWVPGEVNVEGKLEAMQAVVGAKAVPFAGTQAEPIQIAMIYPSADTSDFWARNYIAMTKRLEELGIQFETTEFASRQIEHSLQSTYANQVVQDADLYDFVIFGPSELAIQADNIDKMAASEGFSTFVWAFHTPLKDLKNQPDGWFDFSSAAGALTMCDYMLGRLGNDVTMAMNRGIPGITDDQRSGDFKACVEEKGNWTTIYEHYGEYQREGGFEGTSLILQAYPEATVIHNANTAMAMGSVEAQISVGKEKEVFSTGWGGTGLELDAIRRGELDATPMRMGDDVGAATAEAIKAHLEGRSDELPFVFLGRITVAHDQMSAEEIDALEAEAFRFSGVGALEREGHHHHHH” as the sequence, how does the “soluble on expression in E. coli” value read?
A: soluble

Q: With “NKDMSFVIRGNFTYSKNKIDNWEQIEQKYAYQNFSGWPYGIQRGYIALGLFRDEADINNSPIQTFGNYEAGDIKYKDVNGDGRIDIDDQVPLSYDNYPRLMYGFGGEFRYKNLTFNILFKGIGKKDFFYTSEDSGFGYYPFLYGETGNVLSIVANSSNRWIPASYSGDPSTENPNARFPRLSYGKNSNNTQKSTFWKANGQYLRLQEISVGYNLKLKAFSKIGVSSIDLQLVGQDLYVWDKIGGLWDPEQTTKNGRAYPIPATYSLQMYINF” as the sequence, how does the “soluble on expression in E. coli” value read?
A: not soluble

Q: With “MQPTLGAQAGSMLFRDASGRYCASLAGYRFLSAFQPIFYKGGSLFGHEALLRVVDEGGEWRPPDRFLASLAPGMALEADRLARLIHVRNFAQSGQGGCLCLNLMPATVQEDQSGRTHLPLLNSMLQSVELDSGGVIFELPEFDVEHHGQPLLQGMRHAADMGFGLAVDDFGALPARRDKMGELCPDIIKIDRSLLLDYMAGQTQRLPALLEFGWQIGSRMLVEGIETAEQLEAMRALGVELYQGYYLGRPGELPVLRQL” as the sequence, how does the “soluble on expression in E. coli” value read?
A: not soluble

Q: With “MAHHHHHHMEGEEKVELSQLELKLEELQVIWEDVQATCPATHSSKRRNSSDAVASPPRVRSTSGAAQRQGANTQEPLQLPSPQSKHPSLRLLHANNKGKLRCTNPVASEGAVLGGIVSVSPPHSPANASVGACPHGRDGGVRNCVPSRLPPLDASHAQELLKACSNCGVEQRRPTAQFCWNCGTRI” as the sequence, how does the “soluble on expression in E. coli” value read?
A: not soluble

Q: For “MRPYIINQTEQAQARFGINNDFPVNVILMQPTTSHETFLEGSDYVDFESTSKLRNWPIIVGNQKYFVDPAIFARNSDYFRILMENKFFLEGAIKQLNILDESPEDILKLITVISPNSLGLYPDVIDEQNVCTVLRLCDKYLMTNLKQNCVDYLKDYNPDSREPTDIFHLFYHLCFSLNAEYEHDHSLADVALEAMFVCLVELFNSTNVTKFYRFLIELQRKSGEKDSENLKRVTDAVLHGGSIFKHRISFSEEVQGLGCHQCSMRPPARQSRSKNRKSFVLYLCKSCNREVCVQCRRSLCSRLFEDWINELRS”, which “soluble on expression in E. coli” value is on record?
A: not soluble

Q: With “MEKTYKLPIVLGTDPENTIRIDKLPPLKGAFAVHIHESETENNAHIKLEYGDTEYCLSLYVFNYPKFLRNETVRVRNYDLWPKWIMFAARLPNGKLHPKSGGKVYREDAVIVGEGNYELENPFISFKYSDGRILNFRIEFYRYLRYKSPKYGPSFRSEYWFIGVD” as the sequence, how does the “soluble on expression in E. coli” value read?
A: not soluble

Q: For “MSLYRIDFNKLRFLICDDNPHMRRILRTLLHSFGTREVYEAEDGATALEMYSHYSPDILITDWEMPIFDGLELAQMIRQPEAKGNPYAPIIMLTAHSEKRRVTLARDAGVTEFLAKPISSKGLYQRILNVVASPREGHHHHHH”, which “soluble on expression in E. coli” value is on record?
A: not soluble

Q: With “MSLGTILHSELEKFYDPNLIVGNETADDAAVYDLGNGTAIISTTDFFMPIVDDPFDFGRIAATNAISDIFAMGGKPIMGIAILGFPTNVLPAEVAQKIVDGGRFACHQAGIALAGGHSIDSPEPIFGLAVTGVIDTEKVKRNASAKSGCKLYMTKPLGIGILTTAEKKGKLKPEHQGLATAAMCQMNSIGSQFSQVDGVTAMTDVTGFGLLGHLIEICEGSNLSAVVFSDKIKTLDGVKDYIAQGCVPGGTGRNFDSYGHKVGILTEEQKAILCDPQTSGGLLVAVELNSVQTVIDIAKDAGIDLYEVGKLKPKSESDIVVEVKEGHHHHHH” as the sequence, how does the “soluble on expression in E. coli” value read?
A: soluble
